Data as given in US20170334973A1 (INTEGRATED BIOTHERAPEUTICS, published 2017).

T1: SUDV VLP (Sudan virus (SUDV), UniProt Q66814 33-676)
T1 sequence: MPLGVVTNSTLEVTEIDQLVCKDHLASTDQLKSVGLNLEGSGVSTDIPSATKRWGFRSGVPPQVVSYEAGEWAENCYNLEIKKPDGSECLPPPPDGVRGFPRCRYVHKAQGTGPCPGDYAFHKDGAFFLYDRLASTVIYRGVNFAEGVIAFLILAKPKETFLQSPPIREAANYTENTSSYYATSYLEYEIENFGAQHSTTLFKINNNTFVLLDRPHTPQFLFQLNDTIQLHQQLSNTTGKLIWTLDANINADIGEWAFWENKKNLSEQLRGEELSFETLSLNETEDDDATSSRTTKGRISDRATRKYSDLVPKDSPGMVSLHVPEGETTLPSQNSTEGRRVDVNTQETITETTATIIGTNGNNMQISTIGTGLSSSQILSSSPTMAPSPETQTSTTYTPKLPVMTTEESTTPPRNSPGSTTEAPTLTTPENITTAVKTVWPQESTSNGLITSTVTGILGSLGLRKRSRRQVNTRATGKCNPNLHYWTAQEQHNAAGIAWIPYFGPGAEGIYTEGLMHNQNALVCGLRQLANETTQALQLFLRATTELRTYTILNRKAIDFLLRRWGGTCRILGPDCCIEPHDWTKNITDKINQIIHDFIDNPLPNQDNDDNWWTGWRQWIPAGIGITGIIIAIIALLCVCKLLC

T2: EBOV VLP (Ebola virus (EBOV), UniProt Q05320 33-676)
T2 sequence: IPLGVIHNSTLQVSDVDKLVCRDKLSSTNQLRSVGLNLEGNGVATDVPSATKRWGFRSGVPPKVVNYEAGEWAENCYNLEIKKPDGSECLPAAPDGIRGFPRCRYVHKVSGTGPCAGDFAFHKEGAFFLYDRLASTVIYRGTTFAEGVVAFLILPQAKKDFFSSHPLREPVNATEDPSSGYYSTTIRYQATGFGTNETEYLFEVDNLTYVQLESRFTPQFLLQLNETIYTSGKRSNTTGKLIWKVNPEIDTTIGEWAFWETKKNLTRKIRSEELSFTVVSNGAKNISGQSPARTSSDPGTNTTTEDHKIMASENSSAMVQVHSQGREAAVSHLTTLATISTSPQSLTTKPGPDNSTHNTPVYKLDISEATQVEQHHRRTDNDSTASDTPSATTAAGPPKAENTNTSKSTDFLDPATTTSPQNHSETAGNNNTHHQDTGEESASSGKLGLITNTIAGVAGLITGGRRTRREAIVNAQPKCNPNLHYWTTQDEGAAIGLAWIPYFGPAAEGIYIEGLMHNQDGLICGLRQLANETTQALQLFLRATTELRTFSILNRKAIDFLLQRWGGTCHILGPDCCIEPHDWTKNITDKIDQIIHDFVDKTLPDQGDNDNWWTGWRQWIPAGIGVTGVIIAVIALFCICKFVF

T3: MARV (Musoke strain) GP (Marburg virus (MARV), Musoke strain, UniProt P35253 19-648)
T3 sequence: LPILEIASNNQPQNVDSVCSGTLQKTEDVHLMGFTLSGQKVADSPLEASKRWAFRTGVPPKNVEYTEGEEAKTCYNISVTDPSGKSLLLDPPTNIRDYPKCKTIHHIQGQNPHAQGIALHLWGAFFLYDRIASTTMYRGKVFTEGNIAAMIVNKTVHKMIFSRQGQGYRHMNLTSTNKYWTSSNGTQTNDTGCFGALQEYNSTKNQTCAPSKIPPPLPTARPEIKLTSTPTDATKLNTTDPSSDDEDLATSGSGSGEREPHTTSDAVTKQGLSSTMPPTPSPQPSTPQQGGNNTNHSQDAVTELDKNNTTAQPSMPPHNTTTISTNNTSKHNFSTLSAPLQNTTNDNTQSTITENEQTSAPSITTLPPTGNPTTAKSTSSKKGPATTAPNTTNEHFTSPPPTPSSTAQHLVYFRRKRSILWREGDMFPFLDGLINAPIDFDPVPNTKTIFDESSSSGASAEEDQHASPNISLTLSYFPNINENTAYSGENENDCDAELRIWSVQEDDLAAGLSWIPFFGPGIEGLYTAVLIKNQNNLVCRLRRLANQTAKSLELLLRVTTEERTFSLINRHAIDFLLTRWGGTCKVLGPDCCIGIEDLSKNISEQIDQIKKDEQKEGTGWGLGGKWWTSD

T4: EBOV GPcl (Ebola virus (EBOV), UniProt Q05320 33-200; Q05320 502-632)
T4 sequence 1: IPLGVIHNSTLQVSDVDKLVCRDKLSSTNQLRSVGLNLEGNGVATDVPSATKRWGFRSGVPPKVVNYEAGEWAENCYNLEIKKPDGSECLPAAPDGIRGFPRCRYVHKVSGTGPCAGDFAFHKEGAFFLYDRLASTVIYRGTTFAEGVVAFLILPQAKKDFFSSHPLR
T4 sequence 2: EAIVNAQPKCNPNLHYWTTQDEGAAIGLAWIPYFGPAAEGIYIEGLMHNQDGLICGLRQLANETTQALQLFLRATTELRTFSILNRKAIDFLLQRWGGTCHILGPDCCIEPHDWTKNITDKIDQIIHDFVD

T5: MARV VLP (Marburg virus (MARV), UniProt P35253 19-681)
T5 sequence: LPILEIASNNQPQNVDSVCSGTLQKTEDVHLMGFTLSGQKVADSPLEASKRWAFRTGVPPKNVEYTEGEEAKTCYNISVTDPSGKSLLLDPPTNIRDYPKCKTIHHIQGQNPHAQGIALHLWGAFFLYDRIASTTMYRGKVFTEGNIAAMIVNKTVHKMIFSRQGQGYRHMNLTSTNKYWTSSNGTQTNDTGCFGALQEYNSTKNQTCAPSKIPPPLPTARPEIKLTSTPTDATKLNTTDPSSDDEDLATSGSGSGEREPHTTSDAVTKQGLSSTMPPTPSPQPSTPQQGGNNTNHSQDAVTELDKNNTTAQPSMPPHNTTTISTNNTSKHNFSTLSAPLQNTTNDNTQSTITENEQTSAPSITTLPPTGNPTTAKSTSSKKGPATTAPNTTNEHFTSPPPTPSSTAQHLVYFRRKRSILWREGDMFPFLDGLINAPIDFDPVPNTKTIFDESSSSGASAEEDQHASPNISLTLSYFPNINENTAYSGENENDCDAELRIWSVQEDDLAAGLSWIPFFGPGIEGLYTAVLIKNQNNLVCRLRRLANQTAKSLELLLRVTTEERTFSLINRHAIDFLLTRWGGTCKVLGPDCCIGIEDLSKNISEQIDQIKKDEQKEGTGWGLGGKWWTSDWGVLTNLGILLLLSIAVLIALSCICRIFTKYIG

T6: EBOV soluble GP (sGP) (Ebola virus (EBOV), UniProt P60170 33-324)
T6 sequence: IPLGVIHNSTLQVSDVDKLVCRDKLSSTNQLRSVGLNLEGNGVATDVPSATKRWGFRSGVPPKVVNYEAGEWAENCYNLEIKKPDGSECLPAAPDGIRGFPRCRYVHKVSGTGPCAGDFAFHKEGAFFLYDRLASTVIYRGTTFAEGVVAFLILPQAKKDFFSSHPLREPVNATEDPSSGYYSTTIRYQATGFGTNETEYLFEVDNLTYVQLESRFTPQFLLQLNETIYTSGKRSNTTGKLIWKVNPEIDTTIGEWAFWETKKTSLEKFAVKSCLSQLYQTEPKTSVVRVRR

B1: FVM01P (antibody, V domains shown)
VH: QVQLQESGPGLVKPSETLSLTCTVSGASISNYRWNWIRQPPGKGLEWIGEINGYSGSTNYNPSLKSRVTISKDASKNQFSLKLTSVTAADTAVYYCPIIGGFTLEWFDVWGPGVLVTVSS
VL: DVVLTQSPSSLSASVGDRVTITCRASQGIRNYLNWYQQKPRKAPKLLIYAASSLQSGVPSRFSGSGSGTEFTLTISSLQAEDFATYYCLQGYRTPFTFGPGTKLDIKR
B2: FVM09 (antibody, V domains shown)
VH: EVQLVQSGAEVKRPGESLTISCKTSGYSFTDSWVAWVRQMPGKGLEWLGSIYPGDSETKYNPSFQGHVTISADKSVTTTYLKWSSLKASDTATYYCVKGSETWGQGVLVTVSS
VL: QLVLTQPASLSASPGASASLTCTFSGGINVAGYNILWYQQKAGSPPRYLLRYKSDSTKDQGSGVPSRFSGSKDASANTGILRISGLQSEDEADYYCAIGHSSGWIFGGGTRLTVL
B3: FVM13 (antibody, V domains shown)
VH: EVQLVQSGAEVKRPGESLKISCKTSGYTFTSSWISWVRQMPGKGLEWLGSIYPGDSDTRYNPSFQGHVTISADTSIITTHLQWSSLKASDTATYYCVKGSETWGQGVLVTVSS
VL: KPMLTQPTSLSASPGASASLTCTFSGGINVAGYNILWYQQKAGSPPRYLLRYKSDSTKDQGSGVPSRFSGSKDASANTGILRISGLQSEDEADYYCAIGHSSGWIFGGGTRLTVL
B4: FVM20 (antibody, V domains shown)
VH: EVQLVESGAEVKRPGESLTISCKTSGYSFTGSWISWVRQMPGKGLEWLGSIYPGDSETKYNPSFQGHVTISADKSVTTTYLKWSSLKASDTATYYCVKGSETWGQGVLVTVSS
VL: NFMLTQSASLSASPGASASLTCTFSGGINVAGYHIFWYQQNPGSPPRYLLRYKSDSEKDQGSGVPSRFSGSKDASANTGILRISGLQSEDEADYYCAIGHSSGWIFGGGTRLTVL
B5: FVM03 (antibody, V domains shown)
VH: QVQLQESGPVLVKPSETLSLTCAVSGYSISSAYAWSWIRQPPGKGLEWVGYVGSSSDYNPSLKSRVTISRDTSKNRIFLNLRSLTAADTAVYYCARDRANNSMDVWGRGVLVTVSS
VL: EIVLTQSPDSLGVSLGERVTINCKSSQSLLYSSNNKNYLAWYQQKPGQAPKLLIYWASTRESGVPNRFSGSGSGTDFTLTISGLQAEDVAVYYCQQYYSTPLTFGQGTKVEIKR
B6: FVM02P (antibody, V domains shown)
VH: EVQLVESGGGLVQPGGSLRLSCAASGFTGFTFSDYAFYWVRQAPGKGLEWVGFIRGKAYGGTADYAASVKGRFTISRDNSKNTAYLQMSSLKTEDSAVYYCTSQGVTVATPYHWGQGVLVTVSS
VL: DIVLTQSPLSLPVTPGEPASISCRSSQSLLHSGGKTYLYWYLQKPGQSPQLLIHEVSNRASGVPDRFSGSGSGTDFTLKISRVEAEDVGVYYCMQGIQLPLTFGGGTKVEIKR

Legend:
SUDV VLP = target: T1, SUDV VLP; assay: ELISA
EBOV VLP = target: T2, EBOV VLP; assay: ELISA
MARV (Musoke strain) GP = target: T3, MARV (Musoke strain) GP; assay: GP ELISA, purified mAb
EBOV GPcl = target: T4, EBOV GPcl; assay: ELISA
MARV VLP = target: T5, MARV VLP; assay: ELISA
EBOV soluble GP (sGP) = target: T6, EBOV soluble GP (sGP); assay: ELISA

Row | Binder | EC50 (SUDV VLP) | EC50 (EBOV VLP) | binding result (MARV (Musoke strain) GP) | binding result (EBOV GPcl) | EC50 (MARV VLP) | binding result (EBOV soluble GP (sGP)) | EC50 (MARV (Musoke strain) GP)
1 | B1 | 0.319 nM | 0.459 nM | no binding | – | – | – | –
2 | B2 | 21.3 nM | 24.2 nM | no binding | no binding | – | – | –
3 | B3 | 0.144 nM | 0.198 nM | no binding | – | – | – | –
4 | B4 | 32.9 nM | 1.29 nM | no binding | – | – | – | –
5 | B5 | – | – | – | – | 0.793 nM | – | –
6 | B6 | 0.351 nM | 0.489 nM | – | – | 7.73 nM | no binding | 1 µg/mL
